Experimental data published in US10487307B2, “Culture method for pluripotent stem cells” (FUJIFILM CORPORATION, priority 2013, dated 2019).

What was measured:
[1] = Aggregation after dialysis of purified polypeptide solution; assay type: physicochemical; set-up: key: G: The formation of an aggregate was not observed.; A: The formation of particles having a particle size of about 100 nm was observed.; B: The formation of an aggregation of particles having a particle size of equal to or greater than 1 mm was visually observed
Description: For RCP-1 to RCP-11, each of the purified polypeptide solutions was dialyzed using Slide-A-Lizer (3.5 K MWCO.). Basically, by using a dialysis buffer (PBS, 1.5 M NaCl, 0.5 M L-arginine, 1 mM EDTA, pH 7.4) as an outer dialysate, urea was removed by stepwise dialysis. The concentration of the end-product of dialysis was calculated from the absorbence at 280 nm by using NanoDrop (Thermo Fisher Scientific Inc.).
Whether or not aggregation was occurred was evaluated based on the scale of A, and B as shown below.
G: The formation of an aggregate was not observed.
A: The formation of particles having a particle size of about 100 nm was observed.
B: The formation of an aggregation of particles having a particle size of equal to or greater than 1 mm was visually observed.

iPS cells = experiment: Growth evaluation, number of cells after 3 days; assay type: cell-based, human; conditions: 5,000 cells/well
Description: By adding RCP-1 to RCP-11 and Human Recombinant Laminin-511 as control at the concentration shown in Table 9, samples 1 to 12 were prepared. The samples were seeded into a 96-well plate, onto which each of the polypeptides was adsorbed in the same manner as in <Cell adhesiveness evaluation 1>, at a ratio of 5,000 cells/well and cultured for 3 days in a CO2 incubator at 37° C. The number of cells after 3 days was calculated in the same manner as in <Cell adhesiveness evaluation 1>. In Table 9, the number of cells after 3 days is expressed as a ratio calculated by regarding the number of cells obtained by using the sample 1 as being 100%.

human iPS cells ("Tic") = experiment: Cell adhesiveness evaluation 1 (ALP activity of adhesive iPS cells); assay type: cell-based; conditions: 30,000 cells/well, 24 hours, natural vitronectin (sample 15) = 100%, n=3
Summary of the method: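 Peptides and controls were adsorbed onto wells for 2 h at 37 °C. Single-cell human iPS cells in TeSR2 with 10 μM Y-27362 were seeded at 30,000 cells/well. After 24 h, non-adherent cells were washed off and adherent cells fixed; cell number came from ALP activity via a calibration curve. Adhesion is expressed relative to natural vitronectin (100%), n=3.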

Row | Molecule | Aggregation [1] | Number of cells after 3 days (%) (iPS cells; added amount 5 μg/cm^2, sample 1 (RCP-1) = 100%) | Cell adhesion rate (%) (human iPS cells ("Tic"); added amount 5 μg/cm^2) | Number of cells after 3 days (%) (iPS cells; added amount 80 μg/cm^2, sample 1 = 100%) | Cell adhesion rate (%) (human iPS cells ("Tic"); added amount 200 pmol/cm^2) | Number of cells after 3 days (%) (iPS cells; added amount 10 μg/cm^2, sample 1 (RCP-1) = 100%) | Cell adhesion rate (%) (human iPS cells ("Tic"); added amount 10 μg/cm^2)
1 | RCP-11: recombinant polypeptide for culture, SEQ ID NO: 25; vitronectin positions 1-55, 269-277, 295-341, 342-373, C274S (protein, Vitronectin-derived Recombinant Protein (RCP-11), vitronectin positions 1-55, 269-277, 295-341, 342-373, C274S) MDQESCKGRCTEGFNVDKKCQCDELCSYYQSCCTDYTAECKPQVTRGDVFTMPEDESQEESEGSEDIFELLFWGRTSAGTRQPQFISRDWHGVPGQVDAAMAGRIYISGMAPRPSLAKKQRFRHRNRKGYRSQRGHSRGRNQN | A | 153.5 | 95.9 ± 4.6 | – | – | – | –
2 | RCP-1: recombinant polypeptide for culture, SEQ ID NO: 15; human vitronectin positions 1-55 and 269-459 with N-terminal methionine (protein, Vitronectin-derived Recombinant Protein (RCP-1)) MDQESCKGRCTEGFNVDKKCQCDELCSYYQSCCTDYTAECKPQVTRGDVFTMPEDEPSQEECEGSSLSAVFEHFAMMQRDSWEDIFELLFWGRTSAGTRQPQFISRDWHGVPGQVDAAMAGRIYISGMAPRPSLAKKQRFRHRNRKGYRSQRGHSRGRNQNSRRPSRATWLSLFSSEESNLGANNYDDYRMDWLVPATCEPIQSVFFFSGDKYYRVNLRTRRVDTVDPPYPRSIAQYWLGCPAPGHL | A | – | – | 100.0 | 109.3 ± 5.3 | – | –
3 | RCP-5: recombinant polypeptide for culture, SEQ ID NO: 19; vitronectin positions 1-55, 302-341, 342-373 (protein, Vitronectin-derived Recombinant Protein (RCP-5)) MDQESCKGRCTEGFNVDKKCQCDELCSYYQSCCTDYTAECKPQVTRGDVFTMPEDEFWGRTSAGTRQPQFISRDWHGVPGQVDAAMAGRIYISGMAPRPSLAKKQRFRHRNRKGYRSQRGHSRGRNQN | G | – | – | – | – | 121.2 | 94.1 ± 6.5
